According to patent publication US20250049939A1, “NOVEL FLT3 ANTIBODIES AND ANTIBODY-DRUG-CONJUGATES BASED THEREON, THERAPEUTIC METHODS AND USES THEREOF IN COMBINATION WITH TYROSINE KINASE INHIBITORS” (TUBULIS GmbH, priority 2021, published 2025):

T1: human wildtype FLT3 (hFLT3 wt) (Homo sapiens, UniProt P36888)
T1 construct: expressed in transfected cells; host or cells: Ba/F3 cells, retrovirally transduced with MSCV-IRES-YFP (pMIY) vector
T1 sequence (P36888 27-993): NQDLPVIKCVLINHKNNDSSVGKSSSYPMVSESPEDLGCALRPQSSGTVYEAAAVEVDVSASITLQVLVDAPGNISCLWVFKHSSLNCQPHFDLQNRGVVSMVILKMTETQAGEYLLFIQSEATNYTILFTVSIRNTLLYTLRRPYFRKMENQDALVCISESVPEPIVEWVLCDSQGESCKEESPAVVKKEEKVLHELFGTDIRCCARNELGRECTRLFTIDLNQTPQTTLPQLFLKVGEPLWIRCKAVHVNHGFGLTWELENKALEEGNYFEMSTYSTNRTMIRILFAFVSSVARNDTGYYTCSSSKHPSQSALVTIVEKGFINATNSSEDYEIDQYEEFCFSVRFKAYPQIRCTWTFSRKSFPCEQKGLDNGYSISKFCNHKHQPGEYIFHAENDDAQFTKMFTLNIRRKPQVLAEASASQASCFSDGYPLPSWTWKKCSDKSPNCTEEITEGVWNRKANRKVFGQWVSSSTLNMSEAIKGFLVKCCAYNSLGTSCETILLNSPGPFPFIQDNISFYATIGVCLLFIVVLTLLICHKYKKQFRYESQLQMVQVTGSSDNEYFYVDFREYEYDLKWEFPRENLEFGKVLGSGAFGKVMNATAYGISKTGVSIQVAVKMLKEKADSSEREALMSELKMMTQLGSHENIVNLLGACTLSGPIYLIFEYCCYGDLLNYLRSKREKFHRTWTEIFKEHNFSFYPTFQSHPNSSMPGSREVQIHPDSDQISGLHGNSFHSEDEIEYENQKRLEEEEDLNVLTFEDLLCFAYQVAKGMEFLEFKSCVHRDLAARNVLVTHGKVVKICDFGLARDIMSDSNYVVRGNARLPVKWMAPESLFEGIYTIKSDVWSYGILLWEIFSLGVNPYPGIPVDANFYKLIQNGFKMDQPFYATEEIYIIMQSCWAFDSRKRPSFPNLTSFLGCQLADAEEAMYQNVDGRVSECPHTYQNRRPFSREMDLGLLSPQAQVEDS

B1: 20D9: chimeric (rat variable regions, human IgG1) anti-FLT3 monoclonal antibody; VH SEQ ID NO: 5, VL SEQ ID NO: 6 (antibody, V domains shown)
VH: DVMLVESGGGLVQPGRSLKLSCVASGFTFNNYWMTWIRQAPGKGLEWIASITKTGGGTYYPDSVKGRFTISRDNAKSTLYLQMNSLRSEDTATYYCTTLQQLGVMDAWGQGASVTVSSA
VL: DVQMTQSPSVLSASVGDRITLNCKASQNINKELNWYQQKLGEAPKLLIYNTNNLQTGIPSRFSGSGSGTDYTLTISSLQPEDVATYFCFQHKSWPLTFGSGTKLEIKR
modifications: Clone 20D9, heavy chain variable region without a signal seqeunce; Clone 20D9, light chain variable region without a signal seqeunce
B2: 4B12: chimeric anti-FLT3 antibody from rat; VH SEQ ID NO: 9, VL SEQ ID NO: 10 (antibody, V domains shown)
VH: QVQLQQSGPGLVQPSQTLSLTCTVSGFSLTSYNVNWVRQPPGKGLEWIGAMWRGGGTDYNPALKSRLSISRDTSKSQVFLKMNRLQTEDTAIYFCTRGFGDYWGQGVMVTVSSA
VL: DIQMTQTPLSLSVAIGQSASISCKSSQSLKYSDGKTYLNWVFQSPGQSPKRLIYQVSKLDSGVPDRFSGTGSETDFTLKISRVEAEDLGVYYCCQGSYSPSTFGAGTKLELKR
modifications: Clone 4B12, heavy chain variable region without a signal sequence; Clone 4B12, light chain variable region without a signal seqeunce

Tests used:
[1] = test system: MOLM-13 (FLT3 positive) cells; assay: Temperature induced internalization in MOLM-13, flow cytometry; assay type: cell-based, human; details: 30 min at 37° C. compared to 4° C.
Description: (§1) For antibody binding studies, cells were stained on ice with primary mouse, rat or human anti-FLT3 antibodies (in house) and secondary antibody Goat F(ab′)2 Anti-Human Ig-PE (2012-09), Goat Anti-Mouse IgG (H+L)-PE (1032-09) or Goat Anti-Rat IgG (H+L)-PE (3052-09) purchased from Southern Biotech. For internalization experiments, cells incubated with anti-FLT3 antibodies were washed and incubated for 30 min at 4° C. or 37° C. followed by staining with secondary antibody.

[2] = target: T1, human wildtype FLT3 (hFLT3 wt); assay: Cell surface binding to Ba/F3 hFLT3 wt, flow cytometry
Description: as §1
(§2) For FLT3 expression analysis, cells were stained on ice with primary mouse anti-FLT3-AF647 antibodies for 30 min. For antibody binding studies, cells were stained on ice with chimeric (20D9) or humanized anti-FLT3 antibodies (in house) or IgG1 control with or without Leu234Ala/Leu235Ala (LALA)-mutation in the Fc region and secondary antibody goat F(ab′)2 Anti-Human IgG-AF647 (2042-31) purchased from Southern Biotech for 30 min, respectively. Binding and expression were subsequently measured at the flow cytometer (BD FACSCanto II) and the results were evaluated with FlowJo version 10.8.1.

cynomolgus monkey FLT3 = assay: Cell surface binding to Ba/F3 cynoFLT3, flow cytometry
Description: as §1
Murine FLT3 (OMu21985D, Genescript), human CD64 (RC207487), CD32 (RC205786) and CD16 (RC206429), were purchased from Origene. Cynomolgues monkey FLT3 gene was synthesized from XM_015439107.1 by Eurofins. The constructs were cloned into retroviral expression vector MSCV-IRES-YFP (pMIY) using the In-Fusion HD Cloning Plus Kit (Takara Bio, Saint-Germain-en-Laye, France). All FLT3 point mutations were generated using the QuikChange II XL Site-Directed Mutagenesis Kit (Agilent Technologies, Santa Clara, CA, USA) and correct sequence was confirmed by Sanger sequencing. MSCV-IRES-YFP vectors with inserted human wildtype FLT3 and ITD (w51 and NPOS) mutated FLT3 has been described before (e.g., Opatz S, Polzer H, Herold T, et al. Exome sequencing identifies recurring FLT3 N676K mutations in core-binding factor leukemia. Blood. 2013; 122 (10): 1761-1769. doi: 10.1182/blood-2013-01-476473).
as §2

Row | Molecule | Internalization in MOLM-13 [1] [%] | Binding to Ba/F3-FLT3 cell line by flow cytometry [2] | Binding to cynomolgus monkey FLT3 expressing Ba/F3 cell lines (cynomolgus monkey FLT3) | Cross reactivity for cyno (cynomolgus monkey FLT3)
1 | B1 | 64 | specifically bound | bound | cross-reactive and yes
2 | B2 | 58 | specifically bound | – | cross-reactive and yes
